Changes are numbered by the printed parent chain. Like-named read-outs stand apart in the source and are kept apart here. Blank lines part the entries; values can stand above or below the molecule they belong to.
Columns and labels:
[1] = target: TEV-cleaved wild-type recombinant human galectin-10 (soluble, in Fab complexes, or as recombinant galectin-10 crystals / CLCs) (human) (UniProt Q05315); assay: cell-based or functional assay
[2] = target: human galectin-10-His (recombinant human galectin-10 with TEV-cleavable N-terminal His-tag) (human); assay: ELISA, scFv-hFc on coated galectin-10-His (0.2 ug/mL)
[3] = target: T1, cynomolgus galectin-10-His, WGS isoform (cynomolgus); assay: ELISA, VHH on coated cynomolgus WGS galectin-10-His (1 ug/mL)
T1 construct: not shown: His tag
T1 chain: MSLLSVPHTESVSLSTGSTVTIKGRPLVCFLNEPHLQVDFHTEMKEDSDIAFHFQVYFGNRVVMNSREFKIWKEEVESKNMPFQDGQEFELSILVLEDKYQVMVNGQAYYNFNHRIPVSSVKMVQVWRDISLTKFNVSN

[4] = target: T2, cynomolgus galectin-10-His, YRT isoform (cynomolgus); assay: ELISA, VHH on coated cynomolgus YRT galectin-10-His (1 ug/mL)
T2 construct: not shown: His tag
T2 chain: T1 chain with K23E, G24A, L31F, F69Y, K70R, I71T, S92R

[5] = target: T3, TEV-cleaved wild-type recombinant human galectin-10 (soluble, in Fab complexes, or as recombinant galectin-10 … (human, UniProt Q05315 1-142)); assay: cell-based or functional assay
T3 sequence: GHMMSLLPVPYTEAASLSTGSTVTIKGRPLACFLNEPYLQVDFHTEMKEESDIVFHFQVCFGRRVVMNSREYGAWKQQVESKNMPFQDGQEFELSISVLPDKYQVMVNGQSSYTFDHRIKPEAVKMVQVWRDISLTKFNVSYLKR

[6] = target: T3, TEV-cleaved wild-type recombinant human …; assay: cell-based or functional assay; remark: listed apart in the source
[7] = target: T3, TEV-cleaved wild-type recombinant human …; assay: cell-based or functional assay; remark: listed apart in the source
[8] = target: T4, human galectin-10-His (recombinant human galectin-10 with TEV-cleavable N-terminal His-tag) (human); assay: ELISA binding (summary table), scFv-human Fc
T4 construct: SEC-MALLS: dimer in solution; also called Gal10-His; humanGal10-His
T4 chain: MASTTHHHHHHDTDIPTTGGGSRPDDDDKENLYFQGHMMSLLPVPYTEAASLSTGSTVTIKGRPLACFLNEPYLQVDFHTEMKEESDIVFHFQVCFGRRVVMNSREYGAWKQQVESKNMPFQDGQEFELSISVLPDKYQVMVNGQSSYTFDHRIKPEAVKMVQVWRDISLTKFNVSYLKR

[9] = target: T4, human galectin-10-His (recombinant …); assay: ELISA, scFv-hFc on coated galectin-10-His (0.2 ug/mL)
Experimental: In a similar setup to that used during the initial screening, the relative binding properties of the 12 scFv-human Fc clones were analyzed by ELISA. Briefly, a Maxisorp plate was coated with galectin-10-His at 0.2 μg/mL and blocked with casein, before being incubated with a serial dilution of the scFv-human Fc fusion molecules. After several washing steps, detection of the bound scFv-human Fc was carried out with an anti-human Fc-HRP antibody. Absorbance was measured at 450 nm (reference at 620 nm) with Tecan instrument. Finally, the raw data (OD values) were plotted on GraphPad Prism 7.01. The EC50 value of each compound was calculated with a non-linear regression (log(agonist) vs. response Variable slope (four parameters)).

[10] = target: T4, human galectin-10-His (recombinant …); assay: Biacore capture approach (summary table), scFv-human Fc
Experimental: (§1) In order to determine the binding properties (on-rate/off-rate) of the scFv-human Fc panel, their binding capacity to galectin-10 was analyzed on Biacore T3000. For this purpose, a capture approach was set up. A CM5 Chip was coated with polyclonal anti-human Fc at 8000 RU, then a fixed concentration of the scFv-human Fc panel (1.5 μg/mL), diluted in HBS-EP pH7.4, were captured to reach a binding signal around 150 RU. Finally, a serial dilution of galectin-10-His (serial dilution, 1 over 2 from 5 μg/mL, 6 points of dilution) diluted in HBS-EP pH7.4 was injected. Raw data were analyzed via BIA evaluation software with a blank subtraction (4-3). The kd/KD and Rmax of each scFv-human Fc for galectin-10-His was determined using the Fit Kinetics simultaneous ka/kd/Binding with mass transfer/Local Rmax on BIA evaluation software.

[11] = target: T4, human galectin-10-His (recombinant …); assay: SPR Biacore T3000, scFv-hFc captured by anti-human Fc, galectin-10-His as analyte
Experimental: as §1

[12] = target: T4, human galectin-10-His (recombinant …); assay: as above

CLC formation (crystallization robot assay) [1]: 100%
Bmax (OD values) [2]: 0.018 OD
Molecule: Isotype control, scFv-human Fc (irrelevant scFv-human Fc) (Fc fusion)

binding result [3]: no binding
binding result [4]: no binding
B1: VHH 1D06 (purified, Myc-His tagged) (VHH, not shown: small tags and cut ends)
VHH: QLQLVESGGGLVQPGGSLRLSCAASENSVSTYAMGWFRQAPGKEREFVAAITRAGGNTYNADSVKGRFTISRDNAENTIYLQMNSLKPEDTAVYSCAAGPRYSTISTMFPYWGQGTQVTVSS
notes: also called 1D6

The remaining lines, values behind:

B2: 6F05 scFv-human Fc (Fc fusion)
scFv: QLQLVESGGGLVQPGGSLRLSCAASGFTFSSYAMSWVRQAPGKGLEWVSAINSGGGSTSYADSVKGRFTISRDNAKNTLYLQMNSLKPEDTAVYYCATPGDRLWYYRYDYWGQGTQVTVSSGGGGSGGGGSGGGGSQAGLTQPPSVSGTLGKAVTISCAGTSSDIGYGNYVSWYQQLPGTAPKLLIYKVSRRASGVPDRFSGSKSGNTASLSISGLQSEDEADYYCASYRYRNNVVFGGGTHLTVL
notes: about 100 kDa on SDS-PAGE; also called 6F5; 6F05 ScFv-hFc; not shown: CH2-CH3 constant domains of human IgG1 (vector pUPEX50)
dissolution of in vitro grown Gal10 crystals (spinning disk confocal microscopy) [5]: ≤ 90 min
100% Solubilization of CLC (Conc uM) [6]: 4 µM
100% Inhibition of CLC formation (Conc uM) [7]: 1 µM
100% Solubilization of CLC (Conc uM) [7]: 4 µM
EC50 [8]: 0.02 nM
Bmax (OD values) [9]: 2.9 OD
EC50 [9]: 0.02 nM
Kd [10]: 0.9 nM
koff [10]: 0.00012 s⁻¹
Kd [11]: 0.918 nM
koff [11]: 0.000117 s⁻¹

B3: 6F11 scFv-human Fc (Fc fusion)
scFv: QVQRQESGPGLVKPSQTLSVTCTVSGGSITTGPYSWSWIRQPPGKGLEWIGYIGYSGSTYYSPSLKSRTSISRDTSNNQFSLQLSSVTPEDTAVYYCARSRSSPTTFGMDYWGKGTLVTVSSGGGGSGGGGSGGGGSSSALTQPSAVSVSLGQTARITCQGGDFGRYYVAWYTQKPGQAPVLVIYQDSERPSGIPERFSGSSSGDTATLTISGAQAEDEAEYYCQSGISSDNIVFGGGTHLTVL
notes: about 100 kDa on SDS-PAGE; also called 6F11 ScFv-hFc; not shown: CH2-CH3 constant domains of human IgG1 (vector pUPEX50)
Bmax (OD values) [9]: 1.56 OD
EC50 [9]: 0.48 nM
Kd [12]: > 17 nM
Kd [11]: 2.96 nM
koff [11]: 0.0172 s⁻¹

B4: 6A11 scFv-human Fc (Fc fusion)
scFv: ELQLVESGGGLVQPGGSLRLSCSASGFTFGAYAMNWVRQAPGKGLEWVSGVNSGGGLTSYGESVKGRFTISRDNAKNTLYLQMNRLNPDDTAVYYCAKSKRGAVVAGTGDDYWGQGTQVTVSSGGGGSGGGGSGGGGSSSALTQPSAVSVSLGQTARITCQGGNFGRYYVSWYQQKPGQAPVLVIYKDSERPSGIPERFSGSSSGDTATLTISGAQAEDEADYYCQSGSSSDNAVFGGGTHLTVL
notes: about 100 kDa on SDS-PAGE; also called 6A11 ScFv-hFc; not shown: CH2-CH3 constant domains of human IgG1 (vector pUPEX50)
Bmax (OD values) [9]: 1.59 OD
EC50 [9]: 0.01 nM
Kd [12]: > 17 nM
Kd [11]: 0.711 nM
koff [11]: 0.124 s⁻¹
